# Experimental data: paper PMC8058561, “Activity-dependent conformational transitions of the insulin receptor–related receptor” (The Journal of Biological Chemistry, 2021)
# B1: insulin receptor-related receptor (full-length human IRR with a C-terminal 6xHIS tag) (receptor)
# chain 1: VEVCPSLDIRSEVAELRQLENCSVVEGHLQILLMFTATGEDFRGLSFPRLTQVTDYLLLFRVYGLESLRDLFPNLAVIRGTRLFLGYALVIFEMPHLRDVALPALGAVLRGAVRVEKNQELCHLSTIDWGLLQPAPGANHIVGNKLGEECADVCPGVLGAAGEPCAKTTFSGHTDYRCWTSSHCQRVCPCPHGMACTARGECCHTECLGGCSQPEDPRACVACRHLYFQGACLWACPPGTYQYESWRCVTAERCASLHSVPGRASTFGIHQGSCLAQCPSGFTRNSSSIFCHKCEGLCPKECKVGTKTIDSIQAAQDLVGCTHVEGSLILNLRQGYNLEPQLQHSLGLVETITGFLKIKHSFALVSLGFFKNLKLIRGDAMVDGNYTLYVLDNQNLQQLGSWVAAGLTIPVGKIYFAFNPRLCLEHIYRLEEVTGTRGRQNKAEINPRTNGDRAACQTRTLRFVSNVTEADRILLRWERYEPLEARDLLSFIVYYKESPFQNATEHVGPDACGTQSWNLLDVELPLSRTQEPGVTLASLKPWTQYAVFVRAITLTTEEDSPHQGAQSPIVYLRTLPAAPTVPQDVISTSNSSSHLLVRWKPPTQRNGNLTYYLVLWQRLAEDGDLYLNDYCHRGLRLPTSNNDPRFDGEDGDPEAEMESDCCPCQHPPPGQVLPPLEAQEASFQKKFENFLHNAITIPISPWKVTSINKSPQRDSG
# chain 2: not shown
# notes: alpha subunit (about 100 kDa) of human insulin receptor-related receptor, cut from the single-chain precursor (about 170 kDa); beta subunit (about 70 kDa) of human insulin receptor-related receptor, cut from the single-chain precursor (about 170 kDa); holds the transmembrane segment and the tyrosine kinase domain; Some uncleaved proreceptor (170 kDa) was also seen on the blot; The receptor was …
# Molecular target: the molecule itself
# Test: atomic force microscopy; purified full-length IRR in DDM micelles deposited on mica; tapping mode in 150 mM NaCl, 20 mM sodium phosphate, 5% glycerol, pH 7.0 or pH 9.0; single receptor-micelle complexes sorted by the shape of the ectodomain
protein,measurement,value
B1,binding result,binds
